This is an account of results in publication PMC3675495.

The target in the assay is Su(Hw) (Drosophila (endogenous in embryo nuclear extract)) (UniProt P08970). Description: co-IP.
Sequence of UniProt P08970 (P08970 whole entry): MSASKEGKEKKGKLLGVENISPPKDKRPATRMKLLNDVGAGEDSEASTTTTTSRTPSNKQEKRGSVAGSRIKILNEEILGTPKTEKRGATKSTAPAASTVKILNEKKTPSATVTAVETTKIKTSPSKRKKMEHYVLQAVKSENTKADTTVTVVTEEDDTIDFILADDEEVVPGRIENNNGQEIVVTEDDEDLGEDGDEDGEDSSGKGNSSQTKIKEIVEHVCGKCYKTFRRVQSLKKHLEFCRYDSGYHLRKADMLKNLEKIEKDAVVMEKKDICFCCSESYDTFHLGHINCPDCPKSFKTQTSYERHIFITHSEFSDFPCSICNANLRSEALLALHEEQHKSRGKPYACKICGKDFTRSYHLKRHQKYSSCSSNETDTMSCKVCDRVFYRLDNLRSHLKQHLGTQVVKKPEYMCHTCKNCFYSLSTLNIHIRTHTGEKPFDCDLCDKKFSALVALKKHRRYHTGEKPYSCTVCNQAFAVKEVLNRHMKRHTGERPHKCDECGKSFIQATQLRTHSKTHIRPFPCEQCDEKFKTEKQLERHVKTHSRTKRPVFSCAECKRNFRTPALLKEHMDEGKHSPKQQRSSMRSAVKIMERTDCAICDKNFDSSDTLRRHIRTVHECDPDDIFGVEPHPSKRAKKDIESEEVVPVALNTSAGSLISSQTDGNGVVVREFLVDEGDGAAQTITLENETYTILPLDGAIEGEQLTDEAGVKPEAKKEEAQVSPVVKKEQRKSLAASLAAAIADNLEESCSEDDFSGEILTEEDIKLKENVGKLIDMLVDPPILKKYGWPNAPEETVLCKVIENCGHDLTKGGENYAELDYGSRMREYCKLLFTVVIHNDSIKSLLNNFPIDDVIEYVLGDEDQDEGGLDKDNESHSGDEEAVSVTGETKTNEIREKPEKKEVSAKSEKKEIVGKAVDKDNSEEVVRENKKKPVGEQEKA

With OSA, Q8IN94 1-2716, the percent co-precipitated was 0.5%.
